Results published in patent publication US20130109619A1 (UNITED STATES OF AMERICA AS REPRESENTED BY THE SECRETARY …, published 2013).
Non-standard residues stand in square brackets, D forms with d. Fluo = fluorescein on the Cys side-chain sulfur; Nle = CCCC[C@H](N)C(=O)O

Molecular target: recombinant Epstein Barr virus (EBV) IL10 (Epstein Barr virus, UniProt P03180 24-170)
Test: concentration-dependent changes in fluorescence intensity of the environment-sensitive fluorescein label on the peptide

Chain of recombinant Epstein Barr virus (EBV) IL10 (P03180 24-170 limits assumed): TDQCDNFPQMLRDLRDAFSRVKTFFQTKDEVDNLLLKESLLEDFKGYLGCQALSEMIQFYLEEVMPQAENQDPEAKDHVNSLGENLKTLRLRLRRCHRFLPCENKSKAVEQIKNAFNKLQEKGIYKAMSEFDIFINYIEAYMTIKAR

B1: IL10-HF-6 (peptide)
peptide: Ac-C(Fluo)YKA[Nle]SEFDIFINYIEAY[Nle]T[Nle]KIRN-NH2
notes: also called fluorescent derivative of helix F of IL10; helix F analog
For B1, the Kd was 50 nM.
